Results published in patent US10359406B2, “Diagnosis and treatment of preeclampsia” (A1M Pharma AB, priority 2007, dated 2019).

Columns and labels:
K562 cells [1] = assay: Scavenging of cell-bound heme from K562 cells (spectrophotometry, visual); assay type: cell-based, human; conditions: cells preloaded with 10 μM heme 30 min; protein 2 or 10 μM, 2 h
Procedure: FIG. 18. Scavenging of cell heme by α1m. Human erythroleukemic cells (K562) were cultured with either buffer or 10 μM heme for 30 minutes, washed and resuspended in fresh culture medium. A: The cells were then incubated with α1m (2 or 10 μM) for 2 hours, after which time the culture medium was saved. The cells were washed and solubilized by suspending in a buffer containing 1% NP-40. The culture medium and cellsuspension were then analysed spectrophotometrically by reading the absorbance spectra (300-700 nm). B: The various cultures were also analysed visually. Cells were incubated with either buffer or 10 μM heme for 30 min (Step 1), washed and then incubated with buffer, 10 μM α1m or 10 μM AGP for 2 hours (Step 2), washed and solubilized as described above.
To study the mechanisms of the cytoprotective effect of α1m, we performed a series of experiments attempting to analyze the interactions between the protein and cell-bound heme. […] The culture media were saved, cells washed and solubilized, and both media and solubilized cells analyzed by spectrophotometry (FIG. 18A) and visually (FIG. 18B). Heme was seen as a strong brown-coloring of the cells and the typical absorbance spectrum with a non-distinct peak around 400 nm. […]

[2] = human blood plasma glycoprotein; read-out: Kd of heme binding; cited from earlier work
haemoglobin = assay: Haemoglobin-α1m complex isolated from placenta tissue (anti-α1m affinity column, SDS-PAGE, Western blotting); assay type: binding, human; conditions: 43-kDa band reacting with anti-α1m and anti-Hb-A; lost with mercaptoethanol
Procedure: FIG. 20 show SDS-PAGE and Western blotting of a haemoglobin-α1m complex isolated from placenta tissue. A placenta from a healthy donor was homogenized and centrifuged at 100,000 G for 60 min. The supernatant was applied to an anti-α1m Affigel column which was rinsed and eluted with 0.1 M glycine-HCl, pH 2.3. The eluate was separated by SDS-PAGE which was either stained with Coommassie (two left lanes) or transferred to PVDF membranes and blotted with anti-α1m or anti-Hb-A.
Molecules containing α1m were purified from placenta tissue as described [Berggård et al., 1999]. Approximately 200 g of an apparently normal term human placenta, taken within 3 hours after delivery, were homogenized in 200 ml of 50 mM Tris-HCl, pH 8.0, 0.25 M sucrose, 2 mM EDTA, pepstatin, 1 mg/l, antipain, 5 mg/l, and leupeptin, 10 mg/l, using a Potter-Elvehjem apparatus with a tight-fitting teflon pestle. The homogenate was centrifuged at 10,000 G for 10 min. This pellet was washed by repeatedly suspending 1:1 in the homogenization buffer and recentrifugation at 10,000 G for 10 min. The supernatant was centrifuged at 100,000 G for 90 min. This pellet, containing the placenta membranes and membrane-bound proteins, was dissolved in 40 ml homogenization buffer also containing 0.5% (w/v) Nonidet P-40 (BDH Chemicals) and centrifuged at 20,000 G for 30 min to remove particulate material. […]

collagen = assay: Heme-induced oxidation of collagen/LDL; carbonyl groups measured by ELISA; assay type: biochemical
Procedure: FIG. 17. Reduction of carbonyl groups on oxidized collagen by α1m. Collagen, coated to microtiter plates, was oxidized by incubation with 50 μM heme for 17 h. After washing, 0.1, 0.3 or 1 μM α1m, ovalbumin or ascorbate were added, and incubated for 2 h. Carbonyl groups were measured by ELISA. Each column represents the mean of triplicates+/−SE
(§1) The anti-oxidation properties of α1m are illustrated in FIGS. 16 and 17. […] A possible mechanism for these actions may be the reductase properties of α1m, reducing the oxidants, the oxidation modifications, or both.

K562 cells [3] = assay: Heme-induced cell lysis/death of K562 cells (propidium iodide, FACS); assay type: cell-based, human; conditions: extracellularly added α1m 2, 5 or 10 μM; 200 μM heme, 4 h
Procedure: (§2) FIG. 16. A. Cell-protective properties of α1m against heme- and ROS-induced oxidation. K562 cells were labelled with the oxidation-sensitive probe H2DCFDA, washed, and incubated with α1m (2, 5 or 10 μM), AGP (2, 5 or 10 μM) or ascorbate (10 μM) prior to the addition of 10 μM heme. The cells were incubated for 2 h and analysed with FACS. B. K562 cells were cultured with α1m (2, 5 or 10 μM) or a control protein (α1-acid glycoprotein, AGP) (10 μM) prior to the addition of 200 μM heme and cultured 4 h. The cell suspension was collected, mixed with propidium iodide and analysed with FACS.
as §1

K562 cells [4] = assay: Heme- and ROS-induced oxidation of K562 cells (H2DCFDA probe, FACS); assay type: cell-based, human; conditions: extracellularly added α1m 2, 5 or 10 μM; 10 μM heme, 2 h
Procedure: as §2, §1

| Molecule | effect on cell-bound heme (K562 cells [1]) | Kd [2] | binding of haemoglobin in placenta tissue (haemoglobin) | heme- and ROS-induced oxidation of collagen, LDL, membrane lipids and whole cells (collagen) | removal of pre-formed oxidation products (carbonyl groups) on collagen and LDL (collagen; collagen oxidized with 50 μM heme 17 h, 0.1, 0.3 or 1 μM α1m, 2 h) | cell lysis (cell death) induced by heme (K562 cells [3]) | oxidation of cell cytosol and cytosol protein thiol groups by heme and ROS (K562 cells [4]) |
| --- | --- | --- | --- | --- | --- | --- | --- |
| AGP: control protein (α1-acid glycoprotein), control lipocalin [reference compound] | did not have any effect | – | – | – | – | – | – |
| Hemopexin: glycoprotein (60 kDa) found in human blood plasma which eliminates free heme by binding it strongly | – | ~1 pM | – | – | – | – | – |
| α1m: Recombinant human α1-microglobulin expressed in E. coli; small plasma and tissue protein, heme-binder and radical scavenger (protein, UniProt P02760 20-203, looked up, Alpha-1-microglobulin) Alpha-1-microglobulin: GPVPTPPDNIQVQENFNISRIYGKWYNLAIGSTCPWLKKIMDRMTVSTLVLGEGATEAEISMTSTRWRKGVCEETSGAYEKTDTDGKFLYHKSKWNITMESYVVHTNYDEYAIFLTKKFSRHHGPTITAKLYGRAPQLRETLLQDFRVVAQGVGIPEDSIFTMADRGECVPGEQEPEPILIPRV | almost completely removed from the cells | – | haemoglobin is bound by α1m | inhibited | removed pre-formed oxidation products | inhibits the cell lysis | inhibit the oxidation |
